Source: the Human Domainome abundance scans (Beltran et al. 2025)
± gives the uncertainty stated by the source.

B1: Protein maelstrom homolog, residues 3 to 71; numbered along this chain, Q96JY0 (parent)
chain: NRKASRNAYYFFVQEKIPELRRRGLPVARVADAIPYCSSDWALLREEEKEKYAEMAREWRAAQGKDPGP

Variants of: B1
Assay: abundance fitness (aPCA) (normalised: wild type 0, dead -1); higher = more abundant; growth selection in yeast, the domain comes from the species named
Details: Homo sapiens

Variant | abundance fitness
NRKASRNAYYFFVQEKIPELRRRGLPVARVADAIPYCSSDWALLREEEKEKYAEMAREWRAAQGFDPGP | -0.117 ± 0.1
NRKASRNAYYFFVQEKIPELRRRGLPVARVADAIPYCSSDWALLREEEKEKYAEMAREWRAAQGADPGP | -0.206 ± 0.071
NRKASRNAYYFFVQEKIPELRRRGLPVARVADAIPYCSSDWALLREEEKEKYAEMAREWRAAQGEDPGP | -0.082 ± 0.078
NRKASRNAYYFFVQEKIPELRRRGLPVARVADAIPYCSSDWALLREEEKEKYAEMAREWRAAQGCDPGP | 0.074 ± 0.13
NRKASRNAYYFFVQEKIPELRRRGLPVARVADAIPYCSSDWALLREEEKEKYAEMQREWRAAQGKDPGP | -0.226 ± 0.078
NRKASRNAYYFFVQEKIPELRRRGLPVARVADAIPYCSSDWALLREEEKEKYAEMWREWRAAQGKDPGP | -0.236 ± 0.05
NRKASRNAYYFFVQEKIPELRRRGLPVARVADAIPYCSSDWALLREEEKEKYAEMRREWRAAQGKDPGP | -0.523 ± 0.045
NRKASRNAYYFFVQEKIPELRRRGLPVARVADAIPYCSSDWALLREEEKEKYAEMYREWRAAQGKDPGP | 0.208 ± 0.14
NRKASRNAYYFFVQEKIPELRRRGLPVARVADAIPYCSSDWALLREEEKEKYAEMVREWRAAQGKDPGP | -0.268 ± 0.058
NRKASRNAYYFFVQEKIPELRRRGLPVARVADAIPYCSSDWALLREEEKEKYAEMPREWRAAQGKDPGP | -0.651 ± 0.1
NRKASRNAYYFFVQEKIPELRRRGLPVARVADAIPYCSSDWALLREEEKEKYAEMSREWRAAQGKDPGP | -0.02 ± 0.036
NRKASRNAYYFFVQEKIPELRRRGLPVARVADAIPYCSSDWALLREEEKEKYAEMARMWRAAQGKDPGP | -0.594 ± 0.17
NRKASRNAYYFFVQEKIPELRRRGLPVARVADAIPYCSSDWALLREEEKEKYAEMARTWRAAQGKDPGP | -0.392 ± 0.11
NRKASRNAYYFFVQEKIPELRRRGLPVARVADAIPYCSSDWALLREEEKEKYAEMARGWRAAQGKDPGP | -0.082 ± 0.063
NRKASRNAYYFFVQEKIPELRRRGLPVARVADAIPYCSSDWALLREEEKEKYAEMARLWRAAQGKDPGP | -0.165 ± 0.071
NRKASRNAYYFFVQEKIPELRRRGLPVARVADAIPYCSSDWALLREEEKEKYAEMARFWRAAQGKDPGP | -0.319 ± 0.19
NRKASRNAYYFFVQEKIPELRRRGLPVARVADAIPYCSSDWALLREEEKEKYAEMARVWRAAQGKDPGP | -0.256 ± 0.1
NRKASRNAYYFFVQEKIPELRRRGLPVARVADAIPYCSSDWALLREEEKEKYAEMARSWRAAQGKDPGP | -0.24 ± 0.097
NRKASRNAYYFFVQEKIPELRRRGLPVARVADAIPYCSSDWALLREEEKEKYAEMARKWRAAQGKDPGP | -0.014 ± 0.1
NRKASRNAYYFFVQEKIPELRRRGLPVARVADAIPYCSSDWALLREEEKEKYAEMARPWRAAQGKDPGP | -0.521 ± 0.16
NRKASRNAYYFFVQEKIPELRRRGLPVARVADAIPYCSSDWALLREEEKEKYAEMARQWRAAQGKDPGP | -0.17 ± 0.1
NRKASRNAYYFFVQEKIPELRRRGLPVARVADAIPYCSSDWALLREEEKEKYAEMARIWRAAQGKDPGP | -0.279 ± 0.14
NRKASRNAYYFFVQEKIPELRRRGLPVARVADAIPYCSSDWALLREEEKEKYAEMARYWRAAQGKDPGP | -0.972 ± 0.39
NRKASRNAYYFFVQEKIPELRRRGLPVARVADAIPYCSSDWALLREEEKEKYAEMARDWRAAQGKDPGP | -0.09 ± 0.26
NRKASRNAYYFFVQEKIPELRRRGLPVARVADAIPYCSSDWALLREEEKEKYAEMARAWRAAQGKDPGP | -0.086 ± 0.071
NRKASRNAYYFFVQEKIPELRRRGLPVARVADAIPYCSSDWALLREEEKEKYAEMARCWRAAQGKDPGP | -0.245 ± 0.13

Variant | abundance fitness
NRKASRNAYYFFVQEKIPELRRRGLPVARVADAIPYCSSDWALLREEEKEKYAEMARRWRAAQGKDPGP | -0.189 ± 0.057
NRKASRNAYYFFVQEKIPELRRRGLPVARVADAIPYCSSDWALLREEEKEKYAEMARWWRAAQGKDPGP | -0.523 ± 0.12
NRKASRNAYYFFVQEKIPELRRRGLPVARVADAIPYCSSDWALLREEEKEKYAEMARHWRAAQGKDPGP | 0.246 ± 0.18
NRKASRNAYYFFVQEKIPELRRRGLPVARVADAIPYCSSDWALLREEEKEKYAEMAREWTAAQGKDPGP | 0.322 ± 0.24
NRKASRNAYYFFVQEKIPELRRRGLPVARVADAIPYCSSDWALLREEEKEKYAEMAREWRAAQVKDPGP | 0.196 ± 0.046
NRKASRNAYYFFVQEKIPELRRRGLPVARVADAIPYCSSDWALLREEEKEKYAEMAREWRAAQAKDPGP | 0.146 ± 0.034
NRKASRNAYYFFVQEKIPELRRRGLPVARVADAIPYCSSDWALLREEEKEKYAEMAREWRAAQDKDPGP | 0.207 ± 0.091
NRKASRNAYYFFVQEKIPELRRRGLPVARVADAIPYCSSDWALLREEEKEKYAEMAREWRAAQCKDPGP | 0.082 ± 0.082
NRKASRNAYYFFVQEKIPELRRRGLPVARVADAIPYCSSDWALLREEEKEKYAEMAREWRAAQEKDPGP | 0.088 ± 0.06
NRKASRNAYYFFVQEKIPELRRRGLPVARVADAIPYCSSDWALLREEEKEKYAEMAREWRAAQNKDPGP | 0.214 ± 0.095
NRKASRNAYYFFVQEKIPELRRRGLPVARVADAIPYCSSDWALLREEEKEKYAEMAREWRAAQSKDPGP | 0.035 ± 0.049
NRKASRNAYYFFVQEKIPELRRRGLPVARVADAIPYCSSDWALLREEEKEKYAEMAREWRAAQPKDPGP | -0.022 ± 0.077
NRKASRNAYYFFVQEKIPELRRRGLPVARVADAIPYCSSDWALLREEEKEKYAEMAREWRAAQYKDPGP | 0.181 ± 0.12
NRKASRNAYYFFVQEKIPELRRRGLPVARVADAIPYCSSDWALLREEEKEKYAEMAREWRAAQMKDPGP | -0.008 ± 0.068
NRKASRNAYYFFVQEKIPELRRRGLPVARVADAIPYCSSDWALLREEEKEKYAEMAREWRAAQLKDPGP | -0.018 ± 0.054
NRKASRNAYYFFVQEKIPELRRRGLPVARVADAIPYCSSDWALLREEEKEKYAEMAREWRAAQRKDPGP | 0.116 ± 0.047
NRKASRNAYYFFVQEKIPELRRRGLPVARVADAIPYCSSDWALLREEEKEKYAEMAREWRAAQQKDPGP | 0.165 ± 0.073
NRKASRNAYYFFVQEKIPELRRRGLPVARVADAIPYCSSDWALLREEEKEKYAEMAREWRAAQKKDPGP | 0.048 ± 0.071
NRKASRNAYYFFVQEKIPELRRRGLPVARVADAIPYCSSDWALLREEEKEKYAEMAHEWRAAQGKDPGP | 0.206 ± 0.14
NRKASRNAYYFFVQEKIPELRRRGLPVARVADAIPYCSSDWALLREEEKEKYAEMALEWRAAQGKDPGP | 0.003 ± 0.073
NRKASRNAYYFFVQEKIPELRRRGLPVARVADAIPYCSSDWALLREEEKEKYAEMAQEWRAAQGKDPGP | -0.104 ± 0.1
NRKASRNAYYFFVQEKIPELRRRGLPVARVADAIPYCSSDWALLREEEKEKYAEMASEWRAAQGKDPGP | -0.034 ± 0.09
NRKASRNAYYFFVQEKIPELRRRGLPVARVADAIPYCSSDWALLREEEKEKYAEMATEWRAAQGKDPGP | -0.054 ± 0.098
NRKASRNAYYFFVQEKIPELRRRGLPVARVADAIPYCSSDWALLREEEKEKYAEMAWEWRAAQGKDPGP | -0.378 ± 0.094
NRKASRNAYYFFVQEKIPELRRRGLPVARVADAIPYCSSDWALLREEEKEKYAEMAMEWRAAQGKDPGP | -0.01 ± 0.11
NRKASRNAYYFFVQEKIPELRRRGLPVARVADAIPYCSSDWALLREEEKEKYAEMADEWRAAQGKDPGP | -0.072 ± 0.21

Variant | abundance fitness
NRKASRNAYYFFVQEKIPELRRRGLPVARVADAIPYCSSDWALLREEEKEKYAEMAYEWRAAQGKDPGP | -0.236 ± 0.23
NRKASRNAYYFFVQEKIPELRRRGLPVARVADAIPYCSSDWALLREEEKEKYAEMAIEWRAAQGKDPGP | -0.398 ± 0.42
NRKASRNAYYFFVQEKIPELRRRGLPVARVADAIPYCSSDWALLREEEKEKYAEMAEEWRAAQGKDPGP | 0.021 ± 0.097
NRKASRNAYYFFVQEKIPELRRRGLPVARVADAIPYCSSDWALLREEEKEKYAEMACEWRAAQGKDPGP | -0.089 ± 0.15
NRKASRNAYYFFVQEKIPELRRRGLPVARVADAIPYCSSDWALLREEEKEKYAEMAFEWRAAQGKDPGP | -0.332 ± 0.23
NRKASRNAYYFFVQEKIPELRRRGLPVARVADAIPYCSSDWALLREEEKEKYAEMAAEWRAAQGKDPGP | 0.05 ± 0.078
NRKASRNAYYFFVQEKIPELRRRGLPVARVADAIPYCSSDWALLREEEKEKYAEMAVEWRAAQGKDPGP | -0.093 ± 0.099
NRKASRNAYYFFVQEKIPELRRRGLPVARVADAIPYCSSDWALLREEEKEKYAEMANEWRAAQGKDPGP | -0.135 ± 0.17
NRKASRNAYYFFVQEKIPELRRRGLPVARVADAIPYCSSDWALLREEEKEKYAEMAKEWRAAQGKDPGP | 0.001 ± 0.13
NRKASRNAYYFFVQEKIPELRRRGLPVARVADAIPYCSSDWALLREEEKEKYAEMAGEWRAAQGKDPGP | -0.159 ± 0.068
NRKASRNAYYFFVQEKIPELRRRGLPVARVADAIPYCSSDWALLREEEKEKYAEMAREWRAAEGKDPGP | -0.046 ± 0.062
NRKASRNAYYFFVQEKIPELRRRGLPVARVADAIPYCSSDWALLREEEKEKYAEMAREWRAAGGKDPGP | 0.126 ± 0.043
NRKASRNAYYFFVQEKIPELRRRGLPVARVADAIPYCSSDWALLREEEKEKYAEMAREWRAALGKDPGP | -0.321 ± 0.051
NRKASRNAYYFFVQEKIPELRRRGLPVARVADAIPYCSSDWALLREEEKEKYAEMAREWRAANGKDPGP | 0.023 ± 0.083
NRKASRNAYYFFVQEKIPELRRRGLPVARVADAIPYCSSDWALLREEEKEKYAEMAREWRAADGKDPGP | -0.121 ± 0.13
NRKASRNAYYFFVQEKIPELRRRGLPVARVADAIPYCSSDWALLREEEKEKYAEMAREWRAAHGKDPGP | -0.31 ± 0.13
NRKASRNAYYFFVQEKIPELRRRGLPVARVADAIPYCSSDWALLREEEKEKYAEMAREWRAAVGKDPGP | -0.089 ± 0.059
NRKASRNAYYFFVQEKIPELRRRGLPVARVADAIPYCSSDWALLREEEKEKYAEMAREWRAASGKDPGP | 0.091 ± 0.057
NRKASRNAYYFFVQEKIPELRRRGLPVARVADAIPYCSSDWALLREEEKEKYAEMAREWRAAKGKDPGP | -0.019 ± 0.071
NRKASRNAYYFFVQEKIPELRRRGLPVARVADAIPYCSSDWALLREEEKEKYAEMAREWRAAPGKDPGP | -0.08 ± 0.067
NRKASRNAYYFFVQEKIPELRRRGLPVARVADAIPYCSSDWALLREEEKEKYAEMAREWRAACGKDPGP | -0.255 ± 0.13
NRKASRNAYYFFVQEKIPELRRRGLPVARVADAIPYCSSDWALLREEEKEKYAEMAREWRAAWGKDPGP | -0.37 ± 0.091
NRKASRNAYYFFVQEKIPELRRRGLPVARVADAIPYCSSDWALLREEEKEKYAEMAREWRAAYGKDPGP | -0.242 ± 0.16
NRKASRNAYYFFVQEKIPELRRRGLPVARVADAIPYCSSDWALLREEEKEKYAEMAREWRAAAGKDPGP | -0.018 ± 0.066
NRKASRNAYYFFVQEKIPELRRRGLPVARVADAIPYCSSDWALLREEEKEKYAEMAREWRAAFGKDPGP | -0.202 ± 0.16
NRKASRNAYYFFVQEKIPELRRRGLPVARVADAIPYCSSDWALLREEEKEKYAEMAREWRAARGKDPGP | 0.054 ± 0.042
